In the MegaScale stability set (Tsuboyama et al. 2023):

B1: 5KPH (parent)
chain: EEKRQVKQVAKEKLLEQSPNSKVQVRRVQKQGNTIRVELELRTNGKKENYTVEVERQGNTWTVKRITRT

Variants of: B1
Test: folding stability dG (cDNA display proteolysis); higher = more stable
Conditions: PBS, room temperature

Folding stability dG [kcal/mol]: each site, then its substitutions
T34: H 3.57, K 3.4, L 3.96, P 2.41, A 3.62, D 2.93, R 3.63, C 3.48, M 3.85, I 3.97, Y 3.92, W 3.65, G 3.44, N 3.44, S 3.59, E 2.99, Q 3.38, V 4.08, F 3.81
L39: Y 2.59, V 3.83, A 3.65, I 3.67, H 0.352, T 2.59, R -0.147, G 2.35, S 1.55, K -0.798, W 2.03, N -0.472, F 3.48, M 3.66, C 3.88
V37: K 0.177, C 2.65, T 1.28, N -0.204, F 2.39, Q -0.216, M 2.89, S 0.645, L 3.33, A 2.15, I 3.5, R -0.176, Y 2.32, G 1.21, W 1.87, H -0.646
G32: Q 3.04, I 2.67, F 3.33, A 3.18, V 2.74, R 3.03, N 3.26, E 3.1, P 2.45, D 3.3, W 3.21, L 3.09, Y 3.13, K 3.11, M 2.99, S 2.97, C 3.07, H 3.14, T 2.6
N44: A 3.81, C 3.5, D 3.79, E 4.02, F 3.7
N33: H 3.53, D 3.9, L 3.58, I 3.38, Y 3.5, F 3.67, C 3.22, T 3.82, V 3.4, E 3.68, R 3.74, K 3.75, Q 3.71, M 3.74, G 3.58, A 3.79, W 3.36, S 3.88, P 3.55
T43: G 3.6, V 3.65, Y 3.88, S 3.85, L 3.94, E 3.78, I 3.72, Q 3.91, P 2.17, K 3.69, R 3.47, H 3.98, W 3.7, F 3.87, C 3.24, A 3.72, M 3.68, N 3.87, D 3.65
R26: H 3.56, P 1.51, Y 3.53, K 4, M 4.11, F 3.7, L 4.62, S 3.35, T 3.92, W 3.49, I 4.25, V 4.16, G 3.32, Q 3.49, N 3.51
Q31: N 3.84, H 4.3, Y 4.34, G 3.13, C 3.92, A 3.75, F 4.21, D 3.89, S 4.03, E 4.05, W 4.41, T 4.12, V 4.25, R 4.05, P 1.87, L 4.27, I 4.42, M 4.47, K 3.83
E40: M 3.87, K 3.32, H 3.59, T 4.12, D 3.04, N 3.12, S 3.73, G 2.84, P 0.357, F 3.81, W 3.95, C 3.51, Q 3.91, R 3.46, I 4.1, V 4.23, L 3.96, A 3.52, Y 3.89
R27: M 3.43, A 3.61, Q 3.3, V 3.12, Y 3.72, W 4.14, E 2.76, S 3.79, D 3.1, H 3.71, T 3.37, C 3.45, K 3.62, F 3.84, L 3.53, G 3.64, P 1.38, N 3.56, I 3.22
V28: R 1.56, Y 4.35, T 3.24, C 3.4, L 4.03, W 3.85, F 3.91, P 1.34, A 3.15, E 1.75, G 1.87, H 2.16, Q 2.53, D 1.44, N 1.55, K 1.74, S 2.5, M 4.12, I 3.99
E38: I 4.1, G 3.2, M 4.43, C 3.66, P 1.08, D 3.91, Q 3.76, R 3.69, N 3.51, Y 4.76, W 4.29, H 4.14, T 3.99, K 3.7, F 4.66, L 4.18, S 3.89, A 3.62, V 3.85
K30: W 4.64, V 4.33, H 4.05, N 3.76, M 4.28, G 4.08, Q 4.25, S 4.32, D 3.8, R 4, I 4.35, Y 4.7, L 4.03, P 3.79, T 4.14, E 3.78, C 3.69, A 4.22, F 4.62
R42: D 4.2, I 4.28, W 4.57, K 3.57, F 4.66, Q 3.81, V 4.14, Y 4.45, S 3.91, L 4.08, A 3.59, E 4.12, G 3.04, M 3.85, N 4.19, C 3.54, T 4.4, H 3.91, P 1.28
Q29: R 4.17, D 3.75, W 4.58, S 4.22, H 4.18, E 3.96, T 4.33, C 3.9, F 4.45, M 4.3, V 4.08, A 3.84, K 3.75, Y 4.51, L 4.26, G 3.42, P 1.02, N 3.83, I 4.24
R36: E 3.54, F 4.35, M 4.23, N 3.7, C 3.57, W 4.21, H 4.04, S 3.85, P 0.344, T 3.9, Y 4.54, I 4.34, K 4.23, Q 3.75, V 4.13, A 3.64, D 2.45, L 4.33, G 2.54
I35: G 2.57, T 3.82, R 2.6, H 4.15, P 0.813, V 3.81, L 3.71, N 2.81, A 3.73, S 3.37, C 3.39, D 1.2, F 4.81, Q 2.79, K 1.48, M 4.13, E 1.93
L41: M 3.89, C 3.37, I 3.59, S 3.24, Y 2.35, T 3.36, W 2.39, E 1.66, V 4.07, K 2.73, N 1.7, P 0.528, H 2.19, F 2.69, A 3.63, R 2.65, G 2.38, Q 2.91, D 2.04
